Source: US9062123B2, “Labelled adrenomedullin derivatives and their use for imaging and therapy” (PLUMOSCIENCE INC., priority 2004, dated 2015)
Read-outs that look alike come from different tables or passages of the source. Values belong to the compound of their own block, whether it stands above or below them. Ends that are not written are not given here.

Assays:
[1] = Plasma kinetics of 125I-rAM(1-50) after single intravenous injection in rats; type: in vivo, rat; details: given 5 min before the 125I-rAM(1-50) bolus
Protocol: All experimental procedures were performed in accordance with the regulations and ethical guidelines from Canadian Council for the Care of Laboratory Animals, and received approval by the Animal Ethics and Research Committee of the Montreal Heart Institute. Male Sprague-Dawley rats (Charles River), weighing between 400-450 g, were anaesthetized by an initial intramuscular dose of xylazine (10 mg/kg of body weight) and ketamine (50 mg/kg of body weight), followed by an intra-peritoneal injection of heparin (2000 units; Sigma). Catheters were inserted into the right carotid artery and jugular vein. Heart rate and systemic blood pressure were monitored continuously. […] Venous and arterial blood samples (3 ml) were collected and centrifuged (1875 g, 15 min, 4° C.) and the plasma saved for subsequent measurement of irAM (immunoreactive AM). A similar amount of saline was infused into the animals to prevent hypovolaemia.
The animals were then killed and the lungs, liver, kidneys (en bloc with the adrenal glands) and heart were removed and gravity drained. […] Results are expressed as a percentage of total radioactivity injected. […]
Multiple group comparisons were performed by factorial ANOVA, followed, when a significant interaction was found, by the Bonferroni/Dunn t test. […] In the canine experiments, the effect of drugs on AM extraction was analyzed by two-tailed paired Student's t tests. […]

[2] = Biodistribution / organ retention of 125I-rAM(1-50) in rats, with and without antagonists; type: in vivo, rat
Protocol: The animals were then killed and the lungs, liver, kidneys (en bloc with the adrenal glands) and heart were removed and gravity drained. […] Results are expressed as a percentage of total radioactivity injected.
The drugs were given by either intraarterial (n=10 in each group) or intravenous (n=10 in each group) injection 5 min before the ^125I-rAM(1-50) bolus. Plasma samples and tissues were treated as described above.

[3] = In vivo single-pass pulmonary extraction of 125I-rAM(1-50) in dogs (indicator-dilution); design: species or system dog; details: for single-pass pulmonary extraction of 125I-rAM(1-50) after administration of the substance: dogs, intravenous bolus of 100 nmol, 5 min before
Protocol: Dogs were anaesthetized and prepared as described in detail in reference, which is hereby incorporated by reference. A catheter was inserted into the carotid artery and positioned just above the aortic valve. This catheter was connected to a peristaltic pump for automated blood withdrawal. Another catheter was placed into the jugular vein and positioned in the right ventricular outflow tract to allow bolus injection of the study tracers. A bolus was prepared by adding 3.3 μCi of 125I-rAM(1-50) (2.9 pmol) to 3 ml of Evans-Blue-dye labelled albumin and 0.9% saline to give a final volume of 6 ml. The mixture was separated into three equal parts for the two successive experiments in each animal and to realize dilution-curve standards. A baseline single-bolus indicator-dilution experiment was performed.
The collected samples were processed and indicator-dilution curves constructed and analyzed as described in previously cited reference 13. Cardiac output and mean tracer AM extraction during the pulmonary transit time were computed from the curves. Mean tracer extraction corresponded to the difference between the areas of the outflow curve of the vascular reference (albumin) and that of the extracted tracer (AM). Recirculation of the tracers apparent in the terminal portion of the curves was removed by linear extrapolation of the semi-logarithmic down slopes.

[4] = dog, in vivo, iv
Protocol: All experimental procedures were performed in accordance with regulations and ethical guidelines from Canadian Council for the Care of Laboratory Animals, and received approval by the animal ethics and research committee of the Montreal Heart Institute. Mongrel dogs weighing between 20-30 kg and presenting negative Dirofilaria imitis blood test results were anesthetized by an initial intravenous dose of pentobarbital sodium (50 mg/kg). Animals were intubated and mechanically ventilated using room air. Cutaneous electrocardiographic leads were installed, and 18F cathlon with three-way was installed on both saphenous vein for 0.9% sodium chloride perfusion, radiolabelled injection and blood collection. A right arterial femoral catheter was also inserted using the Seldinger technique for continuous blood pressure monitoring.
Purified and buffered ^99mTc-DTPA-hAM1-52 samples were injected in right saphenous vein (n=6). A series of 2 mL blood samples were collected 1 min after the initial AM injection for a 10-min period, then repeated every 5 min for the following 50-min period. Blood samples were taken via left saphenous vein. […] The blood samples were then placed in an automatic gamma counter (model 1272 Clinigamma, LKB Wallac, Finland) to determine ^99mTc activity.
Plasma kinetics of ^99mTc-DTPA-hAM1-52 was fitted using a two-phase exponential decay equation with GraphPad Prism version 4.0 software. Time effects on each organ biodistribution were analyzed by two-way repeated measures ANOVA followed, when a significant interaction was found, by Bonferroni/Dunn t-test. Multiple organs biodistribution comparison at 30 minutes was performed by one-way ANOVA followed, when a significant interaction was found, by Bonferroni/Dunn t-test. A P values of <0.05 was considered significant. All results are reported as mean±S.D.

[5] = dog, in vivo
Protocol: Multi-organic biodistribution of ^99mTc-DTPA-hAM1-52 was evaluated with an Anger camera (420/550 Mobile Radioisotope Gamma Camera; Technicare, Solon, Ohio, USA) equipped with on board computer, and a low-energy parallel-hole collimator (model 14S22014). Following intravenous injection of ^99mTc-DTPA-hAM1-52, dynamic acquisition of the lungs, heart, liver and kidneys was recorded for a 30-min period (one frame/sec during the first minute, then one frame/min for the remaining time). Static acquisitions was also recorded for whole individual organs, including lungs, kidneys, liver, heart, bladder, gallbladder and muzzle, at 30, 60, 120, 240 minutes after initial injection. These recordings were performed both in ventral and dorsal positions.
Dynamic and static acquisitions were evaluated by using Matlab version 7.01 image analysis tools software. The ^99mTc total count, ^99mTc mean count, and region of interest (ROI) size were calculated for each organ. Data correction was applied for 1) radioactive decay, 2) surgical table attenuation (dorsal images only), 3) geometric mean, and 4) organ's attenuation based on transmission factor.

[6] = target: AM1 (CRLR+RAMP2) receptor, lungs of dogs; experiment: Displacement of labelled human adrenomedullin in the lungs of dogs; type: binding, dog; details: displacement of labelled hAM
Sequence of AM1 (CRLR+RAMP2) receptor, lungs of dogs (A0A8I3NWR4 25-462): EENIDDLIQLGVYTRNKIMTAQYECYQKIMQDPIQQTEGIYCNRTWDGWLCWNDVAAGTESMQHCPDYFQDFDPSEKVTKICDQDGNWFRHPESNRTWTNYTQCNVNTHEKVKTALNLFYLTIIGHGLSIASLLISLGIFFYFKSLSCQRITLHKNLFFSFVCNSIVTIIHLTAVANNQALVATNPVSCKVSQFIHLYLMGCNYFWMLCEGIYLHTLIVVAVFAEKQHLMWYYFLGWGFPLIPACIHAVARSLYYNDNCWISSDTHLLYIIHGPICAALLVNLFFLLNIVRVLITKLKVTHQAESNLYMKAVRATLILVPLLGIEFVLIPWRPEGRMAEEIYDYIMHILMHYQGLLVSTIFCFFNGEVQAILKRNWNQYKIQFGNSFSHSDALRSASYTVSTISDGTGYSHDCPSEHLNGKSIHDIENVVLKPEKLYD

[7] = dog, in vivo, iv; remark: listed apart in the source
Protocol: Following intravenous injection of linear ^99mTc hAM1-52, dynamic acquisition of the lungs, heart, liver and kidneys was recorded for a 30-min period (one frame/sec during the first minute, then one frame/min for the remaining time). Static acquisitions were also recorded for whole individual organs, including lungs, kidneys, liver, heart, bladder, gallbladder and muzzle, at 30, 60, 120, 240 minutes after initial injection. These recordings were performed both in ventral and dorsal positions. Dynamic and static acquisitions were evaluated by using Matlab version 7.01 image analysis tools software. The ^99mTc total count, ^99mTc mean count, and region of interest (ROI) size were calculated for each organ. Data correction was applied for 1) radioactive decay, 2) table correction (dorsal images only), 3) geometric mean, and 4) organ's attenuation based on transmission factor. Results were expressed as a percentage of total radioactivity injected.

[8] = rat, in vivo
Source text: The animals were then sacrificed and the lungs, liver, kidneys (en bloc with the adrenal glands) and heart were removed and gravity drained.

[9] = dog, in vivo; remark: listed apart in the source
Protocol: FIG. 16 illustrates in vivo single-pass measurement of purified ^99mTc linear hAM1-52 clearance in dogs. Dogs were anesthetized and a catheter was inserted into the carotid artery and positioned just above the aortic valve. This catheter is connected to a peristaltic pump for automated blood withdrawal. Another catheter is placed into the jugular vein and positioned in the right ventricular outflow tract to allow bolus injection of the study tracers. A bolus was prepared by adding 2 mCi of purified ^99mTc linear hAM1-52 to 3 ml of Evans blue dye labeled albumin and 0.9% saline for a final volume of 6 ml. A single bolus indicator-dilution experiment was performed. The collected samples were processed and indicator-dilution curves constructed and analysed. Mean tracer ^99mTc linear hAM1-52 AM extraction during the pulmonary transit time was computed from the curves. Mean tracer extraction corresponds to the difference between the areas of the outflow curve of the vascular reference (albumin) and that of the extracted tracer (^99mTc linear hAM1-52). Recirculation of the tracers apparent in the terminal portion of the curves is removed by linear extrapolation of the semi-logarithmic down slopes.

[10] = Kidney uptake of 99mTc-linear AM in rats with monocrotaline kidney damage; type: in vivo, rat; details: for kidney activity, % of total activity injected: external counting of the organs; for kidney uptake, % of total activity injected: external detection by gamma camera, 30 minutes
Protocol: Kidney damage was induced by a single intraperitoenal injection of monocrotaline 60 mg/kg in rats. Three weeks later the animal received were anaesthetized and mechanically ventilated. […] By both methods, the activity in the kidneys was expressed as a percentage of the total activity injected.

[11] = for plasma level: after 10 minutes
Protocol: The animals were anesthetized by an initial intra-muscular dose of xylazine (10 mg/kg) and ketamine (50 mg/kg), followed by an intraperitoneal injection of heparin (2000 U, Sigma Chemical Co.). Additional doses of xylazine/ketamine were used if noxious stimuli (hind feet pinching) could elicit nociceptive motor reflexes or changes of the systemic blood pressure.
99mTc-AM-L was injected in a volume of 200 μl (0.3 pmol, 0.5 mCi) into the right jugular vein.
Differences between groups were evaluated by two-tailed independent samples t-tests. Plasma kinetics of ^99mTc-AM-L were analyzed using a two compartments pharmacokinetic model with Prism v4.0 software and the fitted curves were compared using an F test. All values are reported as means±standard deviations.

[12] = in vivo
Source text: FIGS. 18 and 19 illustrate respectively images of the lungs of a dog and a rat to which purified ^99mTc linear hAM1-52 has been administered.

[13] = dog, in vivo; remark: listed apart in the source
Protocol: Following intravenous injection, dynamic acquisition of the lungs, heart, liver and kidneys was recorded for a 30-min period (one frame/sec during the first minute, then one frame/min for the remaining time). Static acquisitions was also recorded for whole individual organs, including lungs, kidneys, liver, heart, bladder, gallbladder and muzzle, at 30, 60, 120, 240 minutes after initial injection. These recordings were performed both in ventral and dorsal positions. Dynamic and static acquisitions were evaluated by using Matlab version 7.01 image analysis tools software. The ^99mTc total count, ^99mTc mean count, and region of interest (ROI) size were calculated for each organ. Data correction was applied for 1) radioactive decay, 2) table correction (dorsal images only), 3) geometric mean, and 4) organ's attenuation based on transmission factor. Results were expressed as a percentage of total radioactivity injected.
The images were acquired using a Siemens dual hear Ecam Gamma camera 120 min after injection of the compound.

Compound: unlabelled rAM(1-50): unlabelled rat adrenomedullin (1-50), American Peptide (YRQSMNQGSRSTGCRFGTCTMQKLAHQIYQFTDKDKDGMAPRNKISPQGY; ends and bridges not checked; cysteine pairing not given here)
effect on plasma kinetics of radiolabelled rAM(1-50) [1]: did not modify plasma kinetics | effect on amount of 125I-rAM(1-50) retained by the liver, kidneys and heart ([2]; given before the tracer): significantly increased | effect on lung activity of 125I-rAM(1-50) ([2]; given before the tracer): important reduction in lung activity | single-pass pulmonary extraction of 125I-rAM(1-50) after administration of the substance [3]: 21.9±2.4% | mean extraction of 125I-rAM(1-50) after injection of the substance ([3]; same dog, second experiment): 12%

Compound: CC[C@H](C)[C@H](NC(=O)[C@H](CCC(N)=O)NC(=O)[C@H](Cc1c[nH]cn1)NC(=O)[C@H](C)NC(=O)[C@H](CC(C)C)NC(=O)[C@H](CCCCN)NC(=O)[C@H](CCC(N)=O)NC(=O)[C@@H](NC(=O)[C@@H](NC(=O)[C@@H]1CSSC[C@H](NC(=O)CNC(=O)[C@H](Cc2ccccc2)NC(=O)[C@H](CO)NC(=O)[C@H](CCCNC(=N)N)NC(=O)[C@H](CC(C)C)NC(=O)CNC(=O)[C@H](CCC(N)=O)NC(=O)[C@H](Cc2ccccc2)NC(=O)[C@H](CC(N)=O)NC(=O)[C@H](CC(N)=O)NC(=O)[C@H](CCSC)NC(=O)[C@H](CO)NC(=O)[C@H](CCC(N)=O)NC(=O)[C@H](CCCNC(=N)N)NC(=O)[C@H](Cc2ccc(O)cc2)NC(=O)CN(CCN(CCN(CC(=O)O)CC(=O)O)CC(=O)O)CC(=O)O)C(=O)N[C@@H](CCCNC(=N)N)C(=O)N[C@@H](Cc2ccccc2)C(=O)NCC(=O)N[C@@H]([C@@H](C)O)C(=O)N1)[C@@H](C)O)C(C)C)C(=O)N[C@@H](Cc1ccc(O)cc1)C(=O)N[C@@H](CCC(N)=O)C(=O)N[C@@H](Cc1ccccc1)C(=O)N[C@H](C(=O)N[C@@H](CC(=O)O)C(=O)N[C@@H](CCCCN)C(=O)N[C@@H](CC(=O)O)C(=O)N[C@@H](CCCCN)C(=O)N[C@@H](CC(=O)O)C(=O)N[C@@H](CC(N)=O)C(=O)N[C@H](C(=O)N[C@@H](C)C(=O)N1CCC[C@H]1C(=O)N[C@@H](CCCNC(=N)N)C(=O)N[C@@H](CO)C(=O)N[C@@H](CCCCN)C(=O)N[C@H](C(=O)N[C@@H](CO)C(=O)N1CCC[C@H]1C(=O)N[C@@H](CCC(N)=O)C(=O)NCC(=O)N[C@@H](Cc1ccc(O)cc1)C(N)=O)[C@@H](C)CC)C(C)C)[C@@H](C)O [^99mTc-DTPA-hAM1-52, metal not drawn]
distribution half-life [4]: 1.75 min | elimination half-life [4]: 42.14 min | ratio of rate constant for exchange between central and peripheral compartments (k1-2/k2-1) [4]: 24.09 | bladder retention, % of the injected dose [5]: 5.67±1.75% | dynamic multi-organic biodistribution [5]: significant pulmonary first pass retention | gallbladder retention, % of the injected dose [5]: 0.96±0.38% | heart retention, % of the injected dose [5]: 7.17±2.04% | kidneys retention, % of the injected dose [5]: 19.17±3.06% | liver retention, % of the injected dose [5]: 11.67±1.37% | lung retention, % of the injected dose [5]: 15.83±2.32% | lungs retention, % of the injected dose [5]: 27.00±2.76% | muzzle retention, % of the injected dose [5]: 1.17±0.41%

IC50 [6]: 810 nM
Compound: hAM(22-52): C-terminal human AM fragment that blocks the specific AM receptor
effect on plasma kinetics of radiolabelled rAM(1-50) [1]: did not modify plasma kinetics | effect on activity of 125I-rAM(1-50) retained in kidneys ([2]; given before the tracer): elevated the retained activity | effect on biodistribution of 125I-rAM(1-50) ([2]; given before the tracer): did not significantly modify this distribution | effect on pulmonary first-pass retention of 125I-rAM(1-50) ([2]; prior administration): not affected | single-pass pulmonary extraction of 125I-rAM(1-50) after administration of the substance [3]: 31.4±3.3%

Compound: ^99mTc-linear AM: linear hAM(1-52) labelled directly with 99mTc
lung retention [7]: 24% | lung retention [8]: significantly retained by lungs | route of elimination [8]: eliminated by the kidneys (mostly) and the liver | thyroid uptake [8]: minimal | time for which lung uptake is maintained [8]: at least 1 hour | mean single pass extraction by the lung [9]: 21% | kidney activity, % of total activity injected ([10]; control rats): 27%±6% | kidney uptake, % of total activity injected ([10]; control rats): 23%±3% | kidney activity, % of total activity injected ([10]; monocrotaline treated rats): 11%±7% | kidney uptake, % of total activity injected ([10]; monocrotaline treated rats): 10%±6% | plasma level ([11]; PAH (MCT) rats): 2.08±0.65 % ID | plasma level ([11]; control rats): 1.25±0.28 % ID | plasma levels in PAH compared to control animals ([11]; fitted curves, rats): approximately two-fold higher | pulmonary uptake, image ([12]; dog): relatively specific and homogeneous pulmonary uptake | pulmonary uptake, image ([12]; rat): relatively specific and homogeneous pulmonary uptake | kidney retention [13]: 20-30% | kidney retention, whole body imaging [13]: significantly retained by the kidney | reduction in kidney uptake after MCT (MCT versus control rats): about 50% | heart uptake, ex vivo (PAH (MCT) rats): 0.77±0.46 % ID | lung uptake, in vivo biodistribution (PAH (MCT) rats, gamma camera, 30 minutes): 4±1% | lung retention, ex vivo (PAH (MCT) rats, gamma counter, 30 minutes): 3±1% | reduction in lung uptake in PAH (PAH versus control rats): ~70% | heart uptake, ex vivo (rat, in vivo): 0.18±0.03 % ID | lung retention, ex vivo (rat, in vivo): 11±2 % ID | liver, kidney and bladder activities, MCT group compared to control group (rats, 30 minutes): increased liver uptake but lower kidney and bladder activities
